Among the data in PMC10786891, “Massively parallel profiling of RNA-targeting CRISPR-Cas13d” are Kd values, retold here.

First the molecules themselves.
T1: EsCas13d, nuclease-dead (Eubacterium siraeum, UniProt B0MS50, R295A;H300A;R849A;H854A)
T1 sequence: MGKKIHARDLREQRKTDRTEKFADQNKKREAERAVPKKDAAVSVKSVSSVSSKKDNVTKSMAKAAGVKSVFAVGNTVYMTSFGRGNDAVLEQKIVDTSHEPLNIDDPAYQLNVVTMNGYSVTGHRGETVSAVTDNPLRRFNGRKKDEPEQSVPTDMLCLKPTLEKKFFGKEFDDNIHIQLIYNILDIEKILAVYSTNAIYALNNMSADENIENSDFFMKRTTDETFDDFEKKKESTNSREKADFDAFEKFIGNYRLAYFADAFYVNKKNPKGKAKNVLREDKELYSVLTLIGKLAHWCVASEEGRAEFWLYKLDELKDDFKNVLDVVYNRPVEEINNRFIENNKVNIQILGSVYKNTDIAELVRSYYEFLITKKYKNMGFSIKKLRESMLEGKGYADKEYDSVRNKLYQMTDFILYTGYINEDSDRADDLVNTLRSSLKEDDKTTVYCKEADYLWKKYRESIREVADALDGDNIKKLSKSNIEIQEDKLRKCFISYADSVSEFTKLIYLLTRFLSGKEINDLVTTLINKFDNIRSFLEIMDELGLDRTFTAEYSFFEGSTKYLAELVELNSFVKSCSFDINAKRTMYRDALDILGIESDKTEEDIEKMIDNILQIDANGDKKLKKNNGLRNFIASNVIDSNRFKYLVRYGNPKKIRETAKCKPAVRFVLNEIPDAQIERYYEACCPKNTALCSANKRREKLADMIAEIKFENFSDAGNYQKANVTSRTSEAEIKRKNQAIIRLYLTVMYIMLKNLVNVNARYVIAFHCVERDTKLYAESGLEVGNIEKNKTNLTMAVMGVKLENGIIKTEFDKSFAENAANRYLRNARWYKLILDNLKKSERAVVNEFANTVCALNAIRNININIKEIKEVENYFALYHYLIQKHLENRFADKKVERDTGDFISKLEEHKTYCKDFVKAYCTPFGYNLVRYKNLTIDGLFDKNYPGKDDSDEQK

B1: target 1 insG 3' of 16,insU 3' of 12 (mixed)
RNA 1: CACCCGUGCAAAAAUGCAGGGGUCUAAAACUGAGCGGAUAACCUCUCUAUGG
RNA 2: GGGAAUGGAUCCACAUCUACGAAUUCGUACCAUAGAGGAGGUUUAUCCGCUCACCGAGAUCGGAAGAGCACACGU
B2: target 1 insG 3' of 1,insC 3' of 1 (mixed)
RNA 1: CACCCGUGCAAAAAUGCAGGGGUCUAAAACUGAGCGGAUAACCUCUCUAUGG
RNA 2: GGGAAUGGAUCCACAUCUACGAAUUCGUACCAUAGAGAGGUUAUCCGCUCAGCCCGAGAUCGGAAGAGCACACGU
B3: target 1 insA 3' of 2,insG 3' of 2 (mixed)
RNA 1: CACCCGUGCAAAAAUGCAGGGGUCUAAAACUGAGCGGAUAACCUCUCUAUGG
RNA 2: GGGAAUGGAUCCACAUCUACGAAUUCGUACCAUAGAGAGGUUAUCCGCUCAGACCGAGAUCGGAAGAGCACACGU
B4: target 2 MT 5'PFS UCG 3'PFS CAA (mixed)
RNA 1: CACCCGUGCAAAAUUGCAGGGGUCUAAAACCUUCUCCAAAUUGUUUCAUCCU
RNA 2: GGGAAUGGAUCCACAUCUACGAAUUCUCGAGGAUGAAACAAUUUGGAGAAGCAAAGAUCGGAAGAGCACACGU
B5: target 2 MT 5'PFS GUU 3'PFS CAG (mixed)
RNA 1: CACCCGUGCAAAAUUGCAGGGGUCUAAAACCUUCUCCAAAUUGUUUCAUCCU
RNA 2: GGGAAUGGAUCCACAUCUACGAAUUCGUUAGGAUGAAACAAUUUGGAGAAGCAGAGAUCGGAAGAGCACACGU
B6: target 2 MT 5'PFS UCG 3'PFS CAG (mixed)
RNA 1: CACCCGUGCAAAAUUGCAGGGGUCUAAAACCUUCUCCAAAUUGUUUCAUCCU
RNA 2: GGGAAUGGAUCCACAUCUACGAAUUCUCGAGGAUGAAACAAUUUGGAGAAGCAGAGAUCGGAAGAGCACACGU
B7: target 2 MT 5'PFS GUU 3'PFS CAA (mixed)
RNA 1: CACCCGUGCAAAAUUGCAGGGGUCUAAAACCUUCUCCAAAUUGUUUCAUCCU
RNA 2: GGGAAUGGAUCCACAUCUACGAAUUCGUUAGGAUGAAACAAUUUGGAGAAGCAAAGAUCGGAAGAGCACACGU
B8: target 2 MT 5'PFS GCC 3'PFS AAU (mixed)
RNA 1: CACCCGUGCAAAAUUGCAGGGGUCUAAAACCUUCUCCAAAUUGUUUCAUCCU
RNA 2: GGGAAUGGAUCCACAUCUACGAAUUCGCCAGGAUGAAACAAUUUGGAGAAGAAUAGAUCGGAAGAGCACACGU
B9: target 2 MT 5'PFS GAU 3'PFS AGG (mixed)
RNA 1: CACCCGUGCAAAAUUGCAGGGGUCUAAAACCUUCUCCAAAUUGUUUCAUCCU
RNA 2: GGGAAUGGAUCCACAUCUACGAAUUCGAUAGGAUGAAACAAUUUGGAGAAGAGGAGAUCGGAAGAGCACACGU
B10: target 2 MT 5'PFS GAU 3'PFS AGA (mixed)
RNA 1: CACCCGUGCAAAAUUGCAGGGGUCUAAAACCUUCUCCAAAUUGUUUCAUCCU
RNA 2: GGGAAUGGAUCCACAUCUACGAAUUCGAUAGGAUGAAACAAUUUGGAGAAGAGAAGAUCGGAAGAGCACACGU
B11: target 2 MT 5'PFS GUC 3'PFS GAC (mixed)
RNA 1: CACCCGUGCAAAAUUGCAGGGGUCUAAAACCUUCUCCAAAUUGUUUCAUCCU
RNA 2: GGGAAUGGAUCCACAUCUACGAAUUCGUCAGGAUGAAACAAUUUGGAGAAGGACAGAUCGGAAGAGCACACGU
B12: target 2 MT 5'PFS UCG 3'PFS CAU (mixed)
RNA 1: CACCCGUGCAAAAUUGCAGGGGUCUAAAACCUUCUCCAAAUUGUUUCAUCCU
RNA 2: GGGAAUGGAUCCACAUCUACGAAUUCUCGAGGAUGAAACAAUUUGGAGAAGCAUAGAUCGGAAGAGCACACGU
B13: target 2 MT 5'PFS GAU 3'PFS AGC (mixed)
RNA 1: CACCCGUGCAAAAUUGCAGGGGUCUAAAACCUUCUCCAAAUUGUUUCAUCCU
RNA 2: GGGAAUGGAUCCACAUCUACGAAUUCGAUAGGAUGAAACAAUUUGGAGAAGAGCAGAUCGGAAGAGCACACGU

This series deals with T1, EsCas13d, nuclease-dead. Kind of series: crRNA (strand 1, pre-loaded); Mg2+; 40 mM Tris-HCl pH 7.5, 150 mM NaCl, 6 mM MgCl2, 1 mM DTT, 0.1% Tween-20, 0.2 mg/ml BSA; 25 C; 10 min per concentration, then washed. As to conditions: tags: His6-TwinStrep-SUMO cleaved; N-terminal SNAP kept (SNAP-Surface 488); label: 3' end held by stalled T7 RNA polymerase.
For the molecule B1, the Kd (usually the constant that tells how readily two partners part at equilibrium) turned out to be 12.3 ± 0.9 nM. Turning to B2, the affinity, expressed as Kd, was 11 ± 1.4 nM.

B3 came in with a Kd of 10.5 ± 1.2 nM.

The molecule B4 gave a Kd of 10.7 ± 1.9 nM. The result for B5 reads 10.9 ± 0.9 nM; that for B6, 18.7 ± 2.6 nM; that for B7, 6.6 ± 0.7 nM. The result for B8 reads 18 ± 5 nM; that for B9, 10.4 ± 1 nM. The result for B10 reads 8 ± 1.1 nM; that for B11, 12.2 ± 2.8 nM; that for B12, around 30 nM. B13: binding was put at a Kd of 7.1 ± 0.6 nM.
